Measured values reported in patent US20230272029A1, “CO-AGONISTS AT GLP-1 AND GIP RECEPTORS SUITABLE FOR ORAL DELIVERY” (Novo Nordisk A/S, priority 2020, published 2023).
Starred links: 1 amine or outer side, 2 acyl side, 3 side chain; linkers in the order of their positions; H or OH if unused. Non-standard residues stand in square brackets, D forms with d. Groups on a side chain read outwards from the residue. No end group written: not given here. *: point of attachment. C18 diacid = O=C(O)CCCCCCCCCCCCCCCCC(=O)*; γGlu = O=C(O)[C@H](CCC(=O)[*:2])N[*:1]; εLys = N[C@@H](CCCCN[*:1])C(=O)[*:2]; AEEA = NCCOCCOCC(=O)O; Aib = CC(C)(N)C(=O)O

What was measured:
[1] = target: T1, human GIP receptor (human, UniProt P48546 22-466); assay: cell-based or functional assay
T1 sequence (looked up): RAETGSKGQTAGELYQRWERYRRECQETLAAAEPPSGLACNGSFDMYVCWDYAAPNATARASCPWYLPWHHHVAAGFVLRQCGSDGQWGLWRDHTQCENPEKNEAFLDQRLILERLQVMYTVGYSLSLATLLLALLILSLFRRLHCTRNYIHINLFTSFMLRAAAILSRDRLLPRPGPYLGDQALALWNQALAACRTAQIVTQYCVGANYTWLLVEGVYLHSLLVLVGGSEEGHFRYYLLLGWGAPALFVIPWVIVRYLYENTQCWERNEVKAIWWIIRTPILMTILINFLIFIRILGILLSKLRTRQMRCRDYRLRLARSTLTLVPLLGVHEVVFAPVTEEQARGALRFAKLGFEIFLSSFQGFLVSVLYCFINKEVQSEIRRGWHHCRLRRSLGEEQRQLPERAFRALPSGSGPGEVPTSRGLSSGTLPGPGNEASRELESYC

[2] = target: human GLP-1 receptor (human, UniProt P43220 24-463); assay: cell-based or functional assay

B1: Compound No. 7 (peptide)
peptide: Y[Aib]EGTFTSDYSIYLEK([AEEA-AEEA-γGlu-C18 diacid])QAAREFVNWLLAGGPSSGAPPPS-NH2
modifications: N-terminus assumed
SMILES: CC[C@H](C)[C@H](NC(=O)[C@H](CO)NC(=O)[C@H](Cc1ccc(O)cc1)NC(=O)[C@H](CC(=O)O)NC(=O)[C@H](CO)NC(=O)[C@@H](NC(=O)[C@H](Cc1ccccc1)NC(=O)[C@@H](NC(=O)CNC(=O)[C@H](CCC(=O)O)NC(=O)C(C)(C)NC(=O)[C@@H](N)Cc1ccc(O)cc1)[C@@H](C)O)[C@@H](C)O)C(=O)N[C@@H](Cc1ccc(O)cc1)C(=O)N[C@@H](CC(C)C)C(=O)N[C@@H](CCC(=O)O)C(=O)N[C@@H](CCCCNC(=O)COCCOCCNC(=O)COCCOCCNC(=O)CC[C@H](NC(=O)CCCCCCCCCCCCCCCCC(=O)O)C(=O)O)C(=O)N[C@@H](CCC(N)=O)C(=O)N[C@@H](C)C(=O)N[C@@H](C)C(=O)N[C@@H](CCCNC(=N)N)C(=O)N[C@@H](CCC(=O)O)C(=O)N[C@@H](Cc1ccccc1)C(=O)N[C@H](C(=O)N[C@@H](CC(N)=O)C(=O)N[C@@H](Cc1c[nH]c2ccccc12)C(=O)N[C@@H](CC(C)C)C(=O)N[C@@H](CC(C)C)C(=O)N[C@@H](C)C(=O)NCC(=O)NCC(=O)N1CCC[C@H]1C(=O)N[C@@H](CO)C(=O)N[C@@H](CO)C(=O)NCC(=O)N[C@@H](C)C(=O)N1CCC[C@H]1C(=O)N1CCC[C@H]1C(=O)N1CCC[C@H]1C(=O)N[C@@H](CO)C(N)=O)C(C)C
- hGIPR, CRE Luc 0% HSA EC50 (pM) [1]: 28.7 pM
- hGIPR, CRE Luc 1% HSA EC50 (pM) [1]: 687 pM
- hGLP-1R, CRE Luc 0% HSA EC50 (pM) [2]: 4.2 pM
- hGLP-1R, CRE Luc 1% HSA EC50 (pM) [2]: 513 pM

B2: Compound No. 6 (peptide)
peptide: Y[Aib]EGTFTSDYSIYLEK([εLys-εLys-γGlu-C18 diacid])QAAREFVNWLLAGGPSSGAPPPS-NH2
modifications: N-terminus assumed
SMILES: CC[C@H](C)[C@H](NC(=O)[C@H](CO)NC(=O)[C@H](Cc1ccc(O)cc1)NC(=O)[C@H](CC(=O)O)NC(=O)[C@H](CO)NC(=O)[C@@H](NC(=O)[C@H](Cc1ccccc1)NC(=O)[C@@H](NC(=O)CNC(=O)[C@H](CCC(=O)O)NC(=O)C(C)(C)NC(=O)[C@@H](N)Cc1ccc(O)cc1)[C@@H](C)O)[C@@H](C)O)C(=O)N[C@@H](Cc1ccc(O)cc1)C(=O)N[C@@H](CC(C)C)C(=O)N[C@@H](CCC(=O)O)C(=O)N[C@@H](CCCCNC(=O)[C@@H](N)CCCCNC(=O)[C@@H](N)CCCCNC(=O)CC[C@H](NC(=O)CCCCCCCCCCCCCCCCC(=O)O)C(=O)O)C(=O)N[C@@H](CCC(N)=O)C(=O)N[C@@H](C)C(=O)N[C@@H](C)C(=O)N[C@@H](CCCNC(=N)N)C(=O)N[C@@H](CCC(=O)O)C(=O)N[C@@H](Cc1ccccc1)C(=O)N[C@H](C(=O)N[C@@H](CC(N)=O)C(=O)N[C@@H](Cc1c[nH]c2ccccc12)C(=O)N[C@@H](CC(C)C)C(=O)N[C@@H](CC(C)C)C(=O)N[C@@H](C)C(=O)NCC(=O)NCC(=O)N1CCC[C@H]1C(=O)N[C@@H](CO)C(=O)N[C@@H](CO)C(=O)NCC(=O)N[C@@H](C)C(=O)N1CCC[C@H]1C(=O)N1CCC[C@H]1C(=O)N1CCC[C@H]1C(=O)N[C@@H](CO)C(N)=O)C(C)C
- hGIPR, CRE Luc 0% HSA EC50 (pM) [1]: 18.5 pM
- hGIPR, CRE Luc 1% HSA EC50 (pM) [1]: 434 pM
- hGLP-1R, CRE Luc 0% HSA EC50 (pM) [2]: 3.4 pM
- hGLP-1R, CRE Luc 1% HSA EC50 (pM) [2]: 243 pM

B3: Compound No. 5 (peptide)
peptide: Y[Aib]EGTFTSDYSYYLEK([εLys-εLys-γGlu-C18 diacid])QAAQAFVNWLLAGGPSSGAPPPS-OH
modifications: N-terminus assumed
SMILES: CC(C)C[C@H](NC(=O)[C@H](CC(C)C)NC(=O)[C@H](Cc1c[nH]c2ccccc12)NC(=O)[C@H](CC(N)=O)NC(=O)[C@@H](NC(=O)[C@H](Cc1ccccc1)NC(=O)[C@H](C)NC(=O)[C@H](CCC(N)=O)NC(=O)[C@H](C)NC(=O)[C@H](C)NC(=O)[C@H](CCC(N)=O)NC(=O)[C@H](CCCCNC(=O)[C@@H](N)CCCCNC(=O)[C@@H](N)CCCCNC(=O)CC[C@H](NC(=O)CCCCCCCCCCCCCCCCC(=O)O)C(=O)O)NC(=O)[C@H](CCC(=O)O)NC(=O)[C@H](CC(C)C)NC(=O)[C@H](Cc1ccc(O)cc1)NC(=O)[C@H](Cc1ccc(O)cc1)NC(=O)[C@H](CO)NC(=O)[C@H](Cc1ccc(O)cc1)NC(=O)[C@H](CC(=O)O)NC(=O)[C@H](CO)NC(=O)[C@@H](NC(=O)[C@H](Cc1ccccc1)NC(=O)[C@@H](NC(=O)CNC(=O)[C@H](CCC(=O)O)NC(=O)C(C)(C)NC(=O)[C@@H](N)Cc1ccc(O)cc1)[C@@H](C)O)[C@@H](C)O)C(C)C)C(=O)N[C@@H](C)C(=O)NCC(=O)NCC(=O)N1CCC[C@H]1C(=O)N[C@@H](CO)C(=O)N[C@@H](CO)C(=O)NCC(=O)N[C@@H](C)C(=O)N1CCC[C@H]1C(=O)N1CCC[C@H]1C(=O)N1CCC[C@H]1C(=O)N[C@@H](CO)C(=O)O
- hGIPR, CRE Luc 0% HSA EC50 (pM) [1]: 14.2 pM
- hGIPR, CRE Luc 1% HSA EC50 (pM) [1]: 362 pM
- hGLP-1R, CRE Luc 0% HSA EC50 (pM) [2]: 9.4 pM
- hGLP-1R, CRE Luc 1% HSA EC50 (pM) [2]: 625 pM

B4: Compound No. 10 (peptide)
peptide: Y[Aib]EGTFTSDYSIYLEK([AEEA-AEEA-γGlu-C18 diacid])QAAREFIEWLLAGGPSSGAPPPS-OH
modifications: N-terminus assumed
SMILES: CC[C@H](C)[C@H](NC(=O)[C@H](Cc1ccccc1)NC(=O)[C@H](CCC(=O)O)NC(=O)[C@H](CCCNC(=N)N)NC(=O)[C@H](C)NC(=O)[C@H](C)NC(=O)[C@H](CCC(N)=O)NC(=O)[C@H](CCCCNC(=O)COCCOCCNC(=O)COCCOCCNC(=O)CC[C@H](NC(=O)CCCCCCCCCCCCCCCCC(=O)O)C(=O)O)NC(=O)[C@H](CCC(=O)O)NC(=O)[C@H](CC(C)C)NC(=O)[C@H](Cc1ccc(O)cc1)NC(=O)[C@@H](NC(=O)[C@H](CO)NC(=O)[C@H](Cc1ccc(O)cc1)NC(=O)[C@H](CC(=O)O)NC(=O)[C@H](CO)NC(=O)[C@@H](NC(=O)[C@H](Cc1ccccc1)NC(=O)[C@@H](NC(=O)CNC(=O)[C@H](CCC(=O)O)NC(=O)C(C)(C)NC(=O)[C@@H](N)Cc1ccc(O)cc1)[C@@H](C)O)[C@@H](C)O)[C@@H](C)CC)C(=O)N[C@@H](CCC(=O)O)C(=O)N[C@@H](Cc1c[nH]c2ccccc12)C(=O)N[C@@H](CC(C)C)C(=O)N[C@@H](CC(C)C)C(=O)N[C@@H](C)C(=O)NCC(=O)NCC(=O)N1CCC[C@H]1C(=O)N[C@@H](CO)C(=O)N[C@@H](CO)C(=O)NCC(=O)N[C@@H](C)C(=O)N1CCC[C@H]1C(=O)N1CCC[C@H]1C(=O)N1CCC[C@H]1C(=O)N[C@@H](CO)C(=O)O
- hGIPR, CRE Luc 1% HSA EC50 (pM) [1]: 1750 pM
- hGLP-1R, CRE Luc 0% HSA EC50 (pM) [2]: 3.9 pM
- hGLP-1R, CRE Luc 1% HSA EC50 (pM) [2]: 940 pM

B5: Compound No. 8 (peptide)
peptide: Y[Aib]EGTFTSDYSIYLEK([εLys-εLys-γGlu-C18 diacid])QAAREFINWLLAGGPSSGAPPPS-NH2
modifications: N-terminus assumed
SMILES: CC[C@H](C)[C@H](NC(=O)[C@H](Cc1ccccc1)NC(=O)[C@H](CCC(=O)O)NC(=O)[C@H](CCCNC(=N)N)NC(=O)[C@H](C)NC(=O)[C@H](C)NC(=O)[C@H](CCC(N)=O)NC(=O)[C@H](CCCCNC(=O)[C@@H](N)CCCCNC(=O)[C@@H](N)CCCCNC(=O)CC[C@H](NC(=O)CCCCCCCCCCCCCCCCC(=O)O)C(=O)O)NC(=O)[C@H](CCC(=O)O)NC(=O)[C@H](CC(C)C)NC(=O)[C@H](Cc1ccc(O)cc1)NC(=O)[C@@H](NC(=O)[C@H](CO)NC(=O)[C@H](Cc1ccc(O)cc1)NC(=O)[C@H](CC(=O)O)NC(=O)[C@H](CO)NC(=O)[C@@H](NC(=O)[C@H](Cc1ccccc1)NC(=O)[C@@H](NC(=O)CNC(=O)[C@H](CCC(=O)O)NC(=O)C(C)(C)NC(=O)[C@@H](N)Cc1ccc(O)cc1)[C@@H](C)O)[C@@H](C)O)[C@@H](C)CC)C(=O)N[C@@H](CC(N)=O)C(=O)N[C@@H](Cc1c[nH]c2ccccc12)C(=O)N[C@@H](CC(C)C)C(=O)N[C@@H](CC(C)C)C(=O)N[C@@H](C)C(=O)NCC(=O)NCC(=O)N1CCC[C@H]1C(=O)N[C@@H](CO)C(=O)N[C@@H](CO)C(=O)NCC(=O)N[C@@H](C)C(=O)N1CCC[C@H]1C(=O)N1CCC[C@H]1C(=O)N1CCC[C@H]1C(=O)N[C@@H](CO)C(N)=O
- hGIPR, CRE Luc 0% HSA EC50 (pM) [1]: 6.7 pM
- hGIPR, CRE Luc 1% HSA EC50 (pM) [1]: 191 pM
- hGLP-1R, CRE Luc 0% HSA EC50 (pM) [2]: 2.3 pM
- hGLP-1R, CRE Luc 1% HSA EC50 (pM) [2]: 82.1 pM
